Experimental data taken from publication PMC8621148, “Determination of the Protein-Protein Interactions within Acyl Carrier Protein (MmcB)-Dependent Modifications in the Biosynthesis of Mitomycin” (Molecules, 2021).

Assays:
[1] = target: MitB (intact, updated open reading frame), glycosyltransferase (Streptomyces lavendulae NRRL 2564) (UniProt Q9WW09); assay: SPR; Biacore 8K, 25 °C; MitB (5000 RU) or MitF (3000 RU) coupled to a CM5 chip in 10 mM NaAc pH 4.0; holo-MmcB flowed over (2.7-43.2 µM on MitB, 0.7-21.6 µM on MitF)
MitF, reductase = target: T1, MitF, reductase (Streptomyces lavendulae NRRL 2564, UniProt Q9X5R6 1-257); assay: as above; conditions: both partners purified
T1 construct: MitF, reductase of the mitomycin C biosynthetic gene cluster, Streptomyces lavendulae NRRL 2564; source: E. coli BL21(DE3), pET30a (pJQK414), purified (Ni-NTA, FPLC); not shown: His6, N-terminal, kept
T1 sequence (looked up): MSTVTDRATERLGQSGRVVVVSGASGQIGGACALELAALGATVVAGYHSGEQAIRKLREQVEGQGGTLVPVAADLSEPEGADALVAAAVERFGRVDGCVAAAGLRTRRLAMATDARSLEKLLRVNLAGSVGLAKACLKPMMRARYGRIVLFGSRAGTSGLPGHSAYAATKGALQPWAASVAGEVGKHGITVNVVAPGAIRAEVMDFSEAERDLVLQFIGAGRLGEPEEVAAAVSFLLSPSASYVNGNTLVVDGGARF

Kd [1]: 578 nM | koff [1]: 0.113 s⁻¹ | kon [1]: 195000 M⁻¹ s⁻¹ | stoichiometry N [1]: 1 | stoichiometry N (MitF, reductase): 1
B1: holo-MmcB (acyl carrier protein MmcB, tag-free) (natural protein, Streptomyces lavendulae NRRL 2564, UniProt Q9X5S0 1-93, looked up)
chain: METLTTDKIKDRLRKVLVDSLELSLDPSAVPDEGLVEKLGLDSINTIEFLIWVESEFGIEIADEDLSIKLIDSLDLLAGYVSERVNGVTAPAE
modifications: 4'-phosphopantetheine at Ser43 (holo-form)
notes: MmcB, acyl carrier protein of the mitomycin C biosynthetic gene cluster, Streptomyces lavendulae NRRL 2564; 93 amino acid residues; gene synthesised with codons optimised for E. coli; The methods name the holo form for both the pull-down and SPR; also called ACP; tag-free MmcB; not shown: His6, C-terminal, cleaved
